The source of these data is patent US20240352100A1 (AJOU UNIVERSITY INDUSTRY ACADEMIC COOPERATION FOUNDATION, published 2024).

Residue numbers refer to the chain shown, from its start.

Experiment [1] has as its target β-catenin (endogenous, in colon cancer cell lines) (human) (UniProt P35222). The experiment is described as follows: cell-based or functional assay.
The target in experiment [2] is T1, His8-Avi-tag-β-catenin (recombinant, biotinylated, from E. coli) (human, UniProt P35222 1-781, limits assumed, biotinylated (Avi-tag, co-expressed with pBirAcm in the presence of D-Biotin)).
T1 construct: also called purified β-catenin; recombinant antigen protein β-catenin; not shown: His8-Avi tag
T1 sequence (looked up): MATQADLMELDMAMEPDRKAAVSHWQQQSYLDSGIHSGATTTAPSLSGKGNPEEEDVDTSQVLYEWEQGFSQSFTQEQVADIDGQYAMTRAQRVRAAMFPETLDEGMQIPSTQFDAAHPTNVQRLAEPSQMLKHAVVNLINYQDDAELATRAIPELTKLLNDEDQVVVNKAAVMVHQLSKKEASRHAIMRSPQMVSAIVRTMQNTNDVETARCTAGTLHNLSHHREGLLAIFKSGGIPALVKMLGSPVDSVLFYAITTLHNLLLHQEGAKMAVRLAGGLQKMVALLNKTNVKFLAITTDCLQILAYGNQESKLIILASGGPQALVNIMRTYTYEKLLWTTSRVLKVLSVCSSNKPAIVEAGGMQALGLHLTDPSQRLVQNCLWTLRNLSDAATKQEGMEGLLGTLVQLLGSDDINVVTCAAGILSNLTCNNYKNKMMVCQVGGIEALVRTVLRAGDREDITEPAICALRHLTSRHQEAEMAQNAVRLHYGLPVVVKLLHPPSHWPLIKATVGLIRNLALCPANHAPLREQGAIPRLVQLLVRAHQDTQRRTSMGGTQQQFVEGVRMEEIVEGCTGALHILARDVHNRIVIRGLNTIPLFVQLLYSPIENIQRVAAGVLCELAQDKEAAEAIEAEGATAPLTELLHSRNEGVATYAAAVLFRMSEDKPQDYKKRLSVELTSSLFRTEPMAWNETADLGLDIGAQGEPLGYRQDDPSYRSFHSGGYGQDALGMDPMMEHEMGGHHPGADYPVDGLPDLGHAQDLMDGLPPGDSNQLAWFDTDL
The experiment is described as follows: BLI (Octet QKe): antibody captured on AHC sensor, β-catenin at 200, 100, 50, 25, 12.5 nM, 1:1 binding model.

Experiment [3] deals with T1, His8-Avi-tag-β-catenin (recombinant, …). As to the kind of experiment: BLI (Octet QKe), antibody captured on AHC sensor, β-catenin 200-12.5 nM, 1:1 model.

inBC2-VHL152-213 (antibody): in experiment [1], the decrease in the amount of β-catenin (Western blot, HCT116, with or without MLN4924 or Bortezomib) was 30%; the β-catenin degradation activity (Western blot, DLD-1, 2 µM, 12 h) turned out to be 15%; the β-catenin degradation activity (Western blot, HCT116, 2 µM, 12 h) amounted to 36%; the β-catenin degradation activity (Western blot, SW480, DLD-1, HCT116) amounted to 20%. In addition, in experiment [1], the β-catenin degradation activity over time (Western blot, DLD-1, 2 µM) came to 25%.

inBC2-(G5)-VHL152-213 (antibody): the β-catenin degradation activity (Western blot, HCT116, 2 µM, 12 h) in experiment [1] amounted to 5%.

In experiment [1], inBC2-SOCS2153-198 (antibody) came in with a β-catenin degradation ability (Western blot, three colon cancer cell lines) of 40% and a β-catenin degradation ability compared to inBC2-VHL152-213 (Western blot) (% higher than inBC2-VHL152-213) of 20.

Molecule inBC2-(A6)-VHL152-213 (antibody) yielded a β-catenin degradation activity (Western blot, HCT116, 2 µM, 12 h) in experiment [1] of 25%.

Take inBC2-(G10)-VHL152-213 (antibody): the β-catenin degradation activity (Western blot, HCT116, 2 µM, 12 h) in experiment [1] is 8%.

B1: inBC0 (antibody, V domains shown)
VH: QVQLVESGGGVVQPGRSLRLSCAASGFTFSSYPMHWVRQAPGKGLEWVAVVSYDGSYKYYADSVKGRLTISRDNSKNTLYLQMNSLRAEDTAVYYCARATVRGVTKIRGVFDSWGRGALVTVSS
VL: DYQLTQSPSSLSASVGDRVTITCKSSQSLLNSRDGKNYLAWYQQKPGKAPKMLIYWASTRESGVPSRFSGSGSGTDFTLTISSLQPEDFATYFCQQYWYWMFTFGQGTKVEIKR
notes: Complete immunoglobulin made by putting the anti-β-catenin VH into inRas37; also called anti-β-catenin cytosol-penetrating interfering antibody inBC0
For the molecule B1, in experiment [2], the koff came out at 0.000233 s⁻¹ and the kon is 40500 M⁻¹ s⁻¹. For the same molecule, in experiment [3], the Kd amounted to 5.75 nM.

B2: inBC2 (antibody, V domains shown)
VH: B1 VH with R116Q, A118T
VL: B1 VL
notes: Complete immunoglobulin; FR4 back-mutated form of inBC0; also called anti-β-catenin cytosol-penetrating interfering antibody inBC2; anti-β-catenin iMab
On to B2, for which, in experiment [2], the koff came out at 0.000219 s⁻¹ and the kon is 44600 M⁻¹ s⁻¹. In experiment [3], the Kd was found to be 4.92 nM.
